Measured values reported in patent US20250346673A1 (DUALITY BIOLOGICS SUZHOU, published 2025).

T1: human BDCA2 (human, UniProt Q8WTT0 1-213)
T1 construct: whole, on cells; also called hBDCA2; Blood dendritic cell antigen 2
T1 sequence (looked up): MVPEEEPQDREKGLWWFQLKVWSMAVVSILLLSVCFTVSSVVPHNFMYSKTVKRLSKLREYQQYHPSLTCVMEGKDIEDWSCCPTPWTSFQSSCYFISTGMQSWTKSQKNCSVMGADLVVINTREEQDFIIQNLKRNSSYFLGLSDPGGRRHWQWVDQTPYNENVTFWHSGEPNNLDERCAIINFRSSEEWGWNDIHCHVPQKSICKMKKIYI

T2: cynomolgus BDCA2 (cynomolgus monkey, UniProt A0A2K5UWP4 1-212)
T2 construct: whole, on cells; also called Cyno BDCA2; cynoBDCA2
T2 sequence: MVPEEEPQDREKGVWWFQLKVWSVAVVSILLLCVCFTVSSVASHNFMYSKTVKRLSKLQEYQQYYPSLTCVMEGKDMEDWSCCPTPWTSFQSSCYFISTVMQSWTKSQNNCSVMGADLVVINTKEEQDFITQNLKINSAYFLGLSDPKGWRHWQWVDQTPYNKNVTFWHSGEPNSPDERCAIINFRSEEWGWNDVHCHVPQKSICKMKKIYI

T3: human FcγRIIA (R167) (human, UniProt P12318 36-218, limits assumed, biotinylated (site not stated))
T3 construct: also called Fe γ RIIA(R167); Fcγ RIJA (R167)
T3 sequence (looked up): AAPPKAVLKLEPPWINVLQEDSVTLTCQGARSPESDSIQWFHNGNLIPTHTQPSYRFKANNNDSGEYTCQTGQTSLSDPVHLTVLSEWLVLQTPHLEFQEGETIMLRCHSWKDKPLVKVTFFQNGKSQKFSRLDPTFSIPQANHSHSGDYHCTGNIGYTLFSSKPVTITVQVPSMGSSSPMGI

T4: human FcγRIIA (H167) (human, UniProt P12318 36-218, limits assumed, biotinylated (site not stated))
T4 construct: also called Fey RIIA (H167)
T4 sequence (looked up): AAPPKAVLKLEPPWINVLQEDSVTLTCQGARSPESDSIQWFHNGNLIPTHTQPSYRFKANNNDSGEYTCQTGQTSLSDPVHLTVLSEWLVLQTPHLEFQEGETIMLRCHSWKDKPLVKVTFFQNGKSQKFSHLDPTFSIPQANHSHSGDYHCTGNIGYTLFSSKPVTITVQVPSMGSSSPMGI


Legend:
[1] = biological target: T5, Human BDCA2 Fc recombinant protein (human); assay: ELISA, coated humanBDCA2 Fc
T5 construct: Human IgG1 Fc N-terminal of the BDCA2 extracellular domain (Asn45-Ile213), fused by a linker; also called BDCA2-Fc protein
Method: HumanBDCA2 Fc protein or cynoBDCA2 His protein was diluted with PBS to 1 μg/mL and added to ELISA microplates at 100 μL/well and incubated at 4° C. overnight. The plates were blocked with ELISA blocking solution (PBS phosphate buffer with 1% BSA, pH 7.4, the percentages representing mass percentages) at 37° C. for 2 hours. Sequential 10-fold serial dilutions of antibodies were added at 8 concentrations (0.0001 nM-100 nM, including 0 point control) in total at 100 μL/well. The plates were incubated at 37° C. for 1 hour, then washed 3 times and after anti-mouse IgG (Fab specific)-HRP (Sigma, A3682; 1: 5000 dilution) secondary antibodies were added at 100 μL/well, were incubated at 37° C. for 1 h. The plates were washed 3 times, TMB development fluid (EL0009, Huzhou Ying Chuang Biotechnology) was added at 100 μL/well and 50 μL 1N hydrochloric acid was added after incubation at 37° C. for 10 min to stop the development reaction. OD450 nm values were read with ELISA plate reader and the curve was fitted with GraphPad Prism6, and EC₅₀ values were calculated.

[2] = biological target: T1, human BDCA2; assay: FACS on CHOK1-hBDCA2 cells; EC50 table under the plot, unit from the x axis (nM) [continued) e.]
Method: (§1) The cells were recovered and resuspended to 2×10⁶/mL with FACS buffer (PBS+2% FBS). The cells were added to 3799 cell plates (Corning) at 100 μL/well, and the supernatant was discarded after centrifugation at 300 g. The antibodies were serially diluted with FACS buffer (Id.), the diluted antibodies were added to centrifuged cells and the cells were resuspended. The cells were incubated at 4° C. for 1 h. The incubated cells were then centrifuged at […] for 5 min and washed twice with FACS buffer. 100 μL Donkey anti-Mouse IgG (H+L) Highly Cross-Adsorbed Secondary Antibody-Alexa Fluor 488 (Invitrogen, A21202; 1:1000) secondary antibody was added to the cells, which were washed twice with FACS buffer after incubation at 4° C. for 1 h, resuspended with PBS, analyzed with FACS (BD FACS CantoTM II) instrument. The curve was fitted with GraphPad Prism6, and EC₅₀ values were calculated.

[3] = biological target: T2, cynomolgus BDCA2; assay: FACS on 293F-cynoBDCA2 cells; EC50 table under the plot, unit from the x axis (nM) [continued) e.]
Method: as §1

[4] = biological target: T3, human FcγRIIA (R167); assay: SPR (BIAcore 8K), biotinylated FcγRIIA (R167) on SA chip, antibody as analyte, 1:1 binding
Method: (§2) Antibody kinetics or affinity parameters were measured using BIAcore 8K and freshly fixed biotinylated human Fe γ RIIA(R167)/Fc γ RIIA (H167) SA chips. The experiment was run at 25° C. with a running buffer of 1×HBS-EP+(10 mM HEPES pH 7.4, 150 mM NaCl, 3 mM EDTA, 0.05% Surfactant P20). […] The binding and dissociation times of the antibody were 60 and 90 seconds, respectively. Two zero concentration samples are used to remove background signals. The sample was injected in a multi cycle manner, the analyte can be fully dissociated from the chip surface at the end of each cycle, and no regeneration step was applied. Data analysis was perform using Biacore Insight Evaluation Software (Version 2.0.15.12933). After deducting the reference channel (flow cell 1) and two zero concentration signals, affinity analysis was performed using a 1:1 binding model or steady-state model for curve fitting and calculation of kinetic parameters.

[5] = biological target: T4, human FcγRIIA (H167); assay: SPR (BIAcore 8K), biotinylated FcγRIIA (H167) on SA chip, antibody as analyte, 1:1 binding
Method: as §2

[6] = biological target: T4, human FcγRIIA (H167); assay: SPR, FcγRIIA (H167); against the wild-type Fc antibody Hu033-03
Method: as §2

[7] = biological target: T3, human FcγRIIA (R167); assay: SPR, FcγRIIA (R167); against the wild-type Fc antibody Hu033-03
Method: as §2

[8] = biological target: T1, human BDCA2; assay: cell-based or functional assay
[9] = biological target: T3, human FcγRIIA (R167); assay: SPR, FcγRIIA (R167); against the wild-type Fc antibody Hu033-20
Method: as §2

[10] = biological target: T4, human FcγRIIA (H167); assay: SPR, FcγRIIA (H167); against the wild-type Fc antibody Hu033-20
Method: as §2

| EC50 [1] | EC50 [2] | EC50 [3] | Kd [4] | koff [4] | kon [4] | Kd [5] | koff [5] | kon [5] | Multiple of affinity [6] | Multiple of affinity [7] | IC50 for inhibiting cytokine IFNα release, CpG-A stimulated human PBMC [8] | Multiple of affinity [9] | Multiple of affinity [10] | Binder |
| --- | --- | --- | --- | --- | --- | --- | --- | --- | --- | --- | --- | --- | --- | --- |
| < 0.3 nM | 0.705 nM | 1.96 nM |  |  |  |  |  |  |  |  |  |  |  | mAb034 (antibody, V domains shown, Mouse hybridoma antibody) VH: DVQLQESGPGLVKPSQSLSLTCSVTGYSITSGYYWNWIRQFPGNKLECMGYITYDGSNNYNPSLKDRISITRDTSKNQFFLKLNSVTTEDTATYYCARGGDYDDGGFAYWGHGTLVTVSA VL: DIQMTQSPVSLSASVGETVTITCRASGNIHNYLAWYQQKQGKSPQLLVYNAKSLVDGVPSRFSGSGSGTQYSLKINSLQPEDFGSYYCQHFWIIPYTFGGGTKLEIK |
|  |  |  | 303 nM | 0.225 s⁻¹ | 741000 M⁻¹ s⁻¹ | 162 nM | 0.0894 s⁻¹ | 551000 M⁻¹ s⁻¹ | 7.3 fold | 4.4 fold |  |  |  | Hu033-03-T3 (antibody, human IgG1, kappa, Fc-mutated Hu033-03 (IgG1)) heavy: not shown light: DIVLTQSPASLAVSPGQRATITCRASESVSFRTSHLMHWYQQKPGQPPKLLIYGASNLESGVPARFSGSGSETDFTLTINPVEAEDTANYFCQQSIEDPPTFGGGTKVEIKRTVAAPSVFIFPPSDEQLKSGTASVVCLLNNFYPREAKVQWKVDNALQSGNSQESVTEQDSKDSTYSLSSTLTLSKADYEKHKVYACEVTHQGLSSPVTKSFNRGEC |
|  | 0.388 nM | 1.18 nM |  |  |  |  |  |  |  |  | 0.00408 nM |  |  | mAb033 (antibody, V domains shown, Mouse hybridoma antibody) VH: EVQMVESGGDLVKPGDSLKLSCAASGFTFRSYGMSWVRQTPDKRLEWVATISSGDSYTYYPDSVKGRFTISRDNAKNTLYLQMSSLKSEDTALYYCARQIYYDYAYYFDFWGQGTTLTVSS VL: DIVLTQSPASLAVSLGQRATISCRASESVSFRTSHLMHWYQQKPGQPPKLLIYGASNLESGVPARFSGSGSETDFTLNIHPVEEEDAAAYFCQQSIEDPPTFGGGTKLEIK |
|  |  |  | 312 nM | 0.249 s⁻¹ | 798000 M⁻¹ s⁻¹ | 489 nM | 0.242 s⁻¹ | 494000 M⁻¹ s⁻¹ |  |  |  | 5.1 fold | 2.5 fold | Hu033-20-T1 (antibody, human IgG1, kappa, Fc-mutated Hu033-20 (IgG1)) heavy: not shown light: DIVMTQSPDSLAVSLGERATINCRASESVSFRTSHLMHWYQQKPGQPPKLLIYGASNLESGVPDRFSGSGSGTDFTLTISSLQAEDVAVYYCQQSIEDPPTFGGGTKVEIKRTVAAPSVFIFPPSDEQLKSGTASVVCLLNNFYPREAKVQWKVDNALQSGNSQESVTEQDSKDSTYSLSSTLTLSKADYEKHKVYACEVTHQGLSSPVTKSFNRGEC |
|  |  |  | 279 nM | 0.191 s⁻¹ | 683000 M⁻¹ s⁻¹ | 154 nM | 0.087 s⁻¹ | 563000 M⁻¹ s⁻¹ |  |  |  | 6.3 fold | 8.7 fold | Hu033-20-T3 (antibody, human IgG1, kappa, Fc-mutated Hu033-20 (IgG1)) heavy: not shown light: DIVMTQSPDSLAVSLGERATINCRASESVSFRTSHLMHWYQQKPGQPPKLLIYGASNLESGVPDRFSGSGSGTDFTLTISSLQAEDVAVYYCQQSIEDPPTFGGGTKVEIKRTVAAPSVFIFPPSDEQLKSGTASVVCLLNNFYPREAKVQWKVDNALQSGNSQESVTEQDSKDSTYSLSSTLTLSKADYEKHKVYACEVTHQGLSSPVTKSFNRGEC |
|  |  |  | 41.1 nM | 0.0821 s⁻¹ | 2e+06 M⁻¹ s⁻¹ | 95.5 nM | 0.0577 s⁻¹ | 604000 M⁻¹ s⁻¹ |  |  |  | 17.7 fold | 12.1 fold | Hu033-20-T2 (antibody, human IgG1, kappa, Fc-mutated Hu033-20 (IgG1)) heavy: EVQLVESGGGLVKPGGSLRLSCAASGFTFRSYGMSWVRQAPGKRLEWVSTISSGDSYTYYPDSVKGRFTISRDNAKNSLYLQMNSLKAEDTAVYYCARQIYYDYAYYFDFWGQGTTVTVSSASTKGPSVFPLAPSSKSTSGGTAALGCLVKDYFPEPVTVSWNSGALTSGVHTFPAVLQSSGLYSLSSVVTVPSSSLGTQTYICNVNHKPSNTKVDKKVEPKSCDKTHTCPPCPAPELLAGPDVFLFPPKPKDTLMISRTPEVTCVVVDVSHEDPEVKFNWYVDGVEVHNAKTKPREEQYNSTYRVVSVLTVLHQDWLNGKEYKCKVSNKALPAPEEKTISKAKGQPREPQVYTLPPSRDELTKNQVSLTCLVKGFYPSDIAVEWESNGQPENNYKTTPPVLDSDGSFFLYSKLTVDKSRWQQGNVFSCSVMHEALHNHYTQKSLSLSPGK light: DIVMTQSPDSLAVSLGERATINCRASESVSFRTSHLMHWYQQKPGQPPKLLIYGASNLESGVPDRFSGSGSGTDFTLTISSLQAEDVAVYYCQQSIEDPPTFGGGTKVEIKRTVAAPSVFIFPPSDEQLKSGTASVVCLLNNFYPREAKVQWKVDNALQSGNSQESVTEQDSKDSTYSLSSTLTLSKADYEKHKVYACEVTHQGLSSPVTKSFNRGEC |
